Data: patent US20200317768A1 (published 2020)

T1: cynomolgus monkey FcγRIIa3 extracellular domain with C-terminal His-tag (cynomolgus monkey)
T1 construct: also called cyno FcgRIIa3; cynoFcγRIIa3
T1 chain: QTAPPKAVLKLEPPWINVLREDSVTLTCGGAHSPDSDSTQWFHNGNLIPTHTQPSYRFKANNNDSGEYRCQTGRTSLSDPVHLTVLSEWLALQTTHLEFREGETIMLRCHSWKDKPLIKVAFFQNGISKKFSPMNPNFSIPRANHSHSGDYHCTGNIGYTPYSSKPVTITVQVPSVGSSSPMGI


Assays:
[1] = molecular target: T1, cynomolgus monkey FcγRIIa3 …; test: SPR (BIACORE), antibody captured, FcgR analyte
[2] = molecular target: T2, human FcγRIIIaV extracellular domain with C-terminal His-tag (human, UniProt P08637 17-208); test: SPR (BIACORE), antibody captured, FcgR analyte
T2 construct: also called human FcgRIIIaV
T2 sequence (P08637 17-208 F176V): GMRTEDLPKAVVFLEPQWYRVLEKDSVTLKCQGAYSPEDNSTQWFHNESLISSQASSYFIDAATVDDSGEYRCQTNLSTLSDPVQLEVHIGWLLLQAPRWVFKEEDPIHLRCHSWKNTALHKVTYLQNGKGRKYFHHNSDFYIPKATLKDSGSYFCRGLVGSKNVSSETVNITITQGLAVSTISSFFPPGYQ

| Kd [1] | Kd [2] | Binder |
| --- | --- | --- |
| 3.2 µM | 4.2 µM | M103205H795-MY528/M103202L889-SK1 (antibody, human IgG1, kappa, Substitutions introduced into M103205H795-SG1, expressed with M103202L889-SK1 as light chain; EU numbering) heavy: QVTLKESGPVLVKPTETLTLTCTVSGIDLSHDDISWVRQAPGKGLEWVGIISYAGSTYYASWAKGRLTISKDTSKNQVVLTMTNMDPVDTATYYCARGVPAYSHGGDLWGQGTLVTVSSASTKGPSVFPLAPSSKSTSGGTAALGCLVKDYFPEPVTVSWNSGALTSGVHTFPAVLQSSGLYSLSSVVTVPSSSLGTQTYICNVNHKPSNTKVDKKVEPKSCDKTHTCPPCPAPEWLTGPSVFLFPPKPKDTLMISRTPEVTCVVVDVSDEDPEVKFNWYVDGVEVHNAKTKPREEQYNSTYRVVSVLTVLHQDWLNGKEYKCKVSNKALPKPIEKTISKAKGQPREPQVYTLPPSREEMTKNQVSLTCLVKGFYPSDIAVEWESNGQPENNYKTTPPVLDSDGSFFLYSKLTVDKSRWQQGNVFSCSVMHEALHNHYTQKSLSLSP light: DIVMTQSPATLSLSPGERATLSCTSSQSVYHANWLSWFQQKPGQPPKLLIYWASTLAYGVPSRFSGSGSGTDFTLTISSLQPEDAATYYCAGGYGGGRYAFGQGTKVEIKRTVAAPSVFIFPPSDEQLKSGTASVVCLLNNFYPREAKVQWKVDNALQSGNSQESVTEQDSKDSTYSLSSTLTLSKADYEKHKVYACEVTHQGLSSPVTKSFNRGEC |
| 2.5 µM | 3.6 µM | M103205H795-MY530/M103202L889-SK1 (antibody, human IgG1, kappa, Substitutions introduced into M103205H795-SG1, expressed with M103202L889-SK1 as light chain; EU numbering) heavy: QVTLKESGPVLVKPTETLTLTCTVSGIDLSHDDISWVRQAPGKGLEWVGIISYAGSTYYASWAKGRLTISKDTSKNQVVLTMTNMDPVDTATYYCARGVPAYSHGGDLWGQGTLVTVSSASTKGPSVFPLAPSSKSTSGGTAALGCLVKDYFPEPVTVSWNSGALTSGVHTFPAVLQSSGLYSLSSVVTVPSSSLGTQTYICNVNHKPSNTKVDKKVEPKSCDKTHTCPPCPAPELLTGPSVFLFPPKPKDTLMISRTPEVTCVVVDVSDEDPEVKFNWYVDGVEVHNAKTKPREEQYNSTYRVVSVLTVLHQDWLNGKEYKCKVSNTALPKPIEKTISKAKGQPREPQVYTLPPSREEMTKNQVSLTCLVKGFYPSDIAVEWESNGQPENNYKTTPPVLDSDGSFFLYSKLTVDKSRWQQGNVFSCSVMHEALHNHYTQKSLSLSP light: DIVMTQSPATLSLSPGERATLSCTSSQSVYHANWLSWFQQKPGQPPKLLIYWASTLAYGVPSRFSGSGSGTDFTLTISSLQPEDAATYYCAGGYGGGRYAFGQGTKVEIKRTVAAPSVFIFPPSDEQLKSGTASVVCLLNNFYPREAKVQWKVDNALQSGNSQESVTEQDSKDSTYSLSSTLTLSKADYEKHKVYACEVTHQGLSSPVTKSFNRGEC |
| 3.2 µM | 4 µM | M103205H795-MY529/M103202L889-SK1 (antibody, human IgG1, kappa, Substitutions introduced into M103205H795-SG1, expressed with M103202L889-SK1 as light chain; EU numbering) heavy: QVTLKESGPVLVKPTETLTLTCTVSGIDLSHDDISWVRQAPGKGLEWVGIISYAGSTYYASWAKGRLTISKDTSKNQVVLTMTNMDPVDTATYYCARGVPAYSHGGDLWGQGTLVTVSSASTKGPSVFPLAPSSKSTSGGTAALGCLVKDYFPEPVTVSWNSGALTSGVHTFPAVLQSSGLYSLSSVVTVPSSSLGTQTYICNVNHKPSNTKVDKKVEPKSCDKTHTCPPCPAPEWLTGPSVFLFPPKPKDTLMISRTPEVTCVVVDVSDEDPEVKFNWYVDGVEVHNAKTKPREELYNSTYRVVSVLTVLHQDWLNGKEYKCKVSNKALPKPIEKTISKAKGQPREPQVYTLPPSREEMTKNQVSLTCLVKGFYPSDIAVEWESNGQPENNYKTTPPVLDSDGSFFLYSKLTVDKSRWQQGNVFSCSVMHEALHNHYTQKSLSLSP light: DIVMTQSPATLSLSPGERATLSCTSSQSVYHANWLSWFQQKPGQPPKLLIYWASTLAYGVPSRFSGSGSGTDFTLTISSLQPEDAATYYCAGGYGGGRYAFGQGTKVEIKRTVAAPSVFIFPPSDEQLKSGTASVVCLLNNFYPREAKVQWKVDNALQSGNSQESVTEQDSKDSTYSLSSTLTLSKADYEKHKVYACEVTHQGLSSPVTKSFNRGEC |
